Results on 4 molecules are retold here after patent US20190218277A1 (Chugai, published 2019).

Test [1] concerns the target mouse C1q (from 10% mouse plasma) (mouse, UniProt P98086 23-245; P14106 26-253; Q02105 30-246). The experiment in a line: ELISA: antibody coated on the plate at the concentration shown, 10% mouse plasma added, detected with biotinylated anti-mouse C1q and streptavidin-HRP, OD 405 nm. A general note: An ELISA detects its analyte on a solid surface through an enzyme-linked reagent.

For the next test, the target named is T1, human FcγRIIIb (NA2) (human, UniProt O75015 17-200).
T1 construct: also called human FcγR3b allelic variant NA2
T1 chain: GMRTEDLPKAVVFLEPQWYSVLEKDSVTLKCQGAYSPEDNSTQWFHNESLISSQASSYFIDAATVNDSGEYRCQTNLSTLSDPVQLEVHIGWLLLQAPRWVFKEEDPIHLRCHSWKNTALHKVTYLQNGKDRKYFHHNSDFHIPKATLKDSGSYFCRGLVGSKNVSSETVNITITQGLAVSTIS
The experiment in a line: SPR (Biacore T200, pH 7.4, 25 °C): His-tagged FcγR captured by anti-His antibody; antibody injected at 100 nM alone (Ab alone) or as 1:1 complex with trimeric CD154 (CD154 IC); binding level / capture level [H]. In general terms: SPR reads the build-up and loss of mass on a sensor chip optically.

The target in another test is T2, mouse FcγRIII (mouse, UniProt P08508 31-215).
T2 construct: also called mFcγRIII; mouse FcγR3
T2 chain: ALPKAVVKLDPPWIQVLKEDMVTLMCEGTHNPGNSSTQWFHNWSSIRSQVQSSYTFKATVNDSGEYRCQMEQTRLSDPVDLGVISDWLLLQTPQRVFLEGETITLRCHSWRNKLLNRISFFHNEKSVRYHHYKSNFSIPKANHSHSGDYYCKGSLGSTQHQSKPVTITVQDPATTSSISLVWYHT
The experiment in a line: SPR (Biacore T200, pH 7.4, 25 °C): His-tagged FcγR captured by anti-His antibody; antibody injected at 100 nM alone (Ab alone) or as 1:1 complex with trimeric CD154 (CD154 IC); binding level / capture level [C].

Another test addresses T3, human FcγRIIb (human, UniProt P31994 43-217).
T3 construct: also called human FcγR2b
T3 sequence: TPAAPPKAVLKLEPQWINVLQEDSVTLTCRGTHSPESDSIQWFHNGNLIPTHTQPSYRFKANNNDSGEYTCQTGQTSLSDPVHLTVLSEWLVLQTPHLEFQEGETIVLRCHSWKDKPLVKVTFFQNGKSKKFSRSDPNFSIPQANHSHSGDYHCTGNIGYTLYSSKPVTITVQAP
The experiment in a line: SPR (Biacore T200, pH 7.4, 25 °C): His-tagged FcγR captured by anti-His antibody; antibody injected at 100 nM alone (Ab alone) or as 1:1 complex with trimeric CD154 (CD154 IC); binding level / capture level [D].

The target of a further test is T4, human FcγRIIIb (NA1) (human, UniProt O75015 17-200).
T4 construct: also called human FcγR3b allelic variant NA1
T4 chain: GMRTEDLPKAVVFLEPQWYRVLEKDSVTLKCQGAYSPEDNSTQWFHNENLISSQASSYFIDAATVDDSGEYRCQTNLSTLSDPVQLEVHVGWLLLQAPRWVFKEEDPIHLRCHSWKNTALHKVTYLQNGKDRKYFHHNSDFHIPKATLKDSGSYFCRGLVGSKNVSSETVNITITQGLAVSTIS
Description: SPR (Biacore T200, pH 7.4, 25 °C): His-tagged FcγR captured by anti-His antibody; antibody injected at 100 nM alone (Ab alone) or as 1:1 complex with trimeric CD154 (CD154 IC); binding level / capture level [G].

In a further test the target is T5, mouse FcγRI (mouse, UniProt P26151 25-297).
T5 construct: also called mFcγRI; mouse FcγR1
T5 sequence: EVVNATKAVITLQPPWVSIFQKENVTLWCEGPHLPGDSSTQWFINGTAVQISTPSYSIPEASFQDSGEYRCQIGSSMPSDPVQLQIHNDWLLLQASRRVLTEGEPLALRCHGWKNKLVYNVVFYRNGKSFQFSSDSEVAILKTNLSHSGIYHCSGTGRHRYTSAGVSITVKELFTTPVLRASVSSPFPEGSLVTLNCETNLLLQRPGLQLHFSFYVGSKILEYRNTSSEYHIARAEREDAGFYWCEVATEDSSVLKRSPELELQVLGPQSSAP
The experiment in a line: SPR (Biacore T200, pH 7.4, 25 °C): His-tagged FcγR captured by anti-His antibody; antibody injected at 100 nM alone (Ab alone) or as 1:1 complex with trimeric CD154 (CD154 IC); binding level / capture level [A].

The next test addresses T6, Soluble human FcRn (human, UniProt P55899 24-297; P61769 21-119).
T6 construct: also called Biotinylated-FcRn
The experiment in a line: SPR (Biacore T200, pH 7.4, 25 °C): biotinylated FcRn captured on a CAP chip; antibody injected at 100 nM alone (Ab alone) or as 1:1 complex with trimeric CD154 (CD154 IC); binding level / capture level.

For another test, the target named is T7, mouse FcγRIV (mouse, UniProt A0A0B4J1G0 21-203).
T7 construct: also called mFcγRIV; mouse FcγR4
T7 sequence: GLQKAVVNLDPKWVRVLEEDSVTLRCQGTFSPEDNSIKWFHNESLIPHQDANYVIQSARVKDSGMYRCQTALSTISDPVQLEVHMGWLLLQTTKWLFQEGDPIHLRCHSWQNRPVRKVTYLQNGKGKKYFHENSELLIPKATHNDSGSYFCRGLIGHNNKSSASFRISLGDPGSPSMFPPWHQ
Description: SPR (Biacore T200, pH 7.4, 25 °C): His-tagged FcγR captured by anti-His antibody; antibody injected at 100 nM alone (Ab alone) or as 1:1 complex with trimeric CD154 (CD154 IC); binding level / capture level [D].

A further test addresses T8, human FcγRIa (human, UniProt P12314 16-292).
T8 construct: also called human FcγR1a
Description: SPR (Biacore T200, pH 7.4, 25 °C): His-tagged FcγR captured by anti-His antibody; antibody injected at 100 nM alone (Ab alone) or as 1:1 complex with trimeric CD154 (CD154 IC); binding level / capture level [A].

In another test the target is T9, human FcγRIIIa (158V) (human, UniProt P08637 17-208).
T9 construct: also called human FcγR3a allelic variant 158V
T9 sequence (P08637 other isoform, or with tags, fused parts or gaps limits assumed): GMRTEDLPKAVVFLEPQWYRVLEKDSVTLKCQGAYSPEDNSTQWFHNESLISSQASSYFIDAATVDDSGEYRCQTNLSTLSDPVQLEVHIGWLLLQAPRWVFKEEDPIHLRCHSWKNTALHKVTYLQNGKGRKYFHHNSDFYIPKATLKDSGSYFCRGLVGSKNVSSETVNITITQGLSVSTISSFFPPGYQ
Description: SPR (Biacore T200, pH 7.4, 25 °C): His-tagged FcγR captured by anti-His antibody; antibody injected at 100 nM alone (Ab alone) or as 1:1 complex with trimeric CD154 (CD154 IC); binding level / capture level [F].

Chain of mouse C1q (from 10% mouse plasma) (P98086 23-245 limits assumed, chain 1 of 3): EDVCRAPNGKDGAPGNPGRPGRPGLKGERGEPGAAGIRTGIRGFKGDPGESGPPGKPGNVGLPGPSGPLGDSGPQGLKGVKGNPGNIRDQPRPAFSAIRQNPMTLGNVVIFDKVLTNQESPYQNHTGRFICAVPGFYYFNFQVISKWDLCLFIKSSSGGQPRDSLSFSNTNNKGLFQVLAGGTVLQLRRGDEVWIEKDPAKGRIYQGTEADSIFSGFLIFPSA
Chain of mouse C1q (from 10% mouse plasma) (P14106 26-253 limits assumed, chain 2 of 3): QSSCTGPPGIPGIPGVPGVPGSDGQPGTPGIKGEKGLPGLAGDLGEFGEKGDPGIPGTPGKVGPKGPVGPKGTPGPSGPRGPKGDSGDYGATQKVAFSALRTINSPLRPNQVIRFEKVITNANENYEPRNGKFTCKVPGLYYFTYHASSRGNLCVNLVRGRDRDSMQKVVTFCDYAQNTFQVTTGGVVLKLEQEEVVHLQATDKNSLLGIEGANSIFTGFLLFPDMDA
Chain of mouse C1q (from 10% mouse plasma) (Q02105 30-246 limits assumed, chain 3 of 3): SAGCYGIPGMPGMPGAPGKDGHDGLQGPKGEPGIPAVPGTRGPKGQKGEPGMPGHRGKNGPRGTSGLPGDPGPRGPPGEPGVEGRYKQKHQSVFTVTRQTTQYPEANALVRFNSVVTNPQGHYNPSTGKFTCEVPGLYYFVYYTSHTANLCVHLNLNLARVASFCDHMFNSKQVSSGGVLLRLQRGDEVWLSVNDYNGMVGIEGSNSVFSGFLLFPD
T6 sequence (P55899 24-297 limits assumed, chain 1 of 2): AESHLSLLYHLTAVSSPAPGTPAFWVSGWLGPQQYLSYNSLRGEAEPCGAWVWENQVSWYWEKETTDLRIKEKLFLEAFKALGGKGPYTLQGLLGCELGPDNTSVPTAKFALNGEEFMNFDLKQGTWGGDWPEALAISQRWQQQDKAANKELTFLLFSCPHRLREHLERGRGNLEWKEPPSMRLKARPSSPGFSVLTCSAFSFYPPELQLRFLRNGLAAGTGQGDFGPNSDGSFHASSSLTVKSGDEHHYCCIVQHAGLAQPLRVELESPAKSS
T6 sequence (P61769 21-119 limits assumed, chain 2 of 2): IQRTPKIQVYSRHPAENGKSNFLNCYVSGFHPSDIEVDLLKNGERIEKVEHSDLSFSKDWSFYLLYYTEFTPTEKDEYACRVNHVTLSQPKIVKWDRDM
T8 sequence (P12314 16-292 limits assumed): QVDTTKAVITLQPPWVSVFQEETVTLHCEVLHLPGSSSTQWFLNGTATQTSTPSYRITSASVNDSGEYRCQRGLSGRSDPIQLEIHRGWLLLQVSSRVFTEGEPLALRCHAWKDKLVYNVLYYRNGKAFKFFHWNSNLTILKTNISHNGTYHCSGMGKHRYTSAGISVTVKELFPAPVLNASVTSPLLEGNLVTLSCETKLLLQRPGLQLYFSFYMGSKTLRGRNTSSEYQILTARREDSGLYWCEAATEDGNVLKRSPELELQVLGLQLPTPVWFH

B1: Anti-CD154 antibody (SLAPH0336a/SLAPL0336a) with Fc variant LALA+ACT3 (SG1044) (antibody)
heavy: EVQLVESGGGSVKPGGSLKLSCAASGFTFSDHYMYWVRQTPEKRLEWVAIISGGGSYTSYPDSMKGRFTISRDNAKNILHLQMSSLKSEDTAMYYCTRESNGKPGFAYWGQGTLVTVSAASTKGPSVFPLAPSSKSTSGGTAALGCLVKDYFPEPVTVSWNSGALTSGVHTFPAVLQSSGLYSLSSVVTVPSSSLGTQTYICNVNHKPSNTKVDKRVEPKSCDKTHTCPPCPAPEAAGGPSVFLFPPKPKDTLMISRTPEVTCVVVDVSHEDPEVKFNWYVDGVEVHNAKTKPREEQYNSTYRVVSVLTVLHQDWLNGKEYKCKVSNKALPAPIEKTISKAKGQPREPQVYTLPPSREEMTKNQVSLTCLVKGFYPSDIAVEWESNGQPENNYKTTPPVLDSDGSFFLYSKLTVDKSRWQQGNVFSCSVLHEALHAHTTRKELSLSP
light: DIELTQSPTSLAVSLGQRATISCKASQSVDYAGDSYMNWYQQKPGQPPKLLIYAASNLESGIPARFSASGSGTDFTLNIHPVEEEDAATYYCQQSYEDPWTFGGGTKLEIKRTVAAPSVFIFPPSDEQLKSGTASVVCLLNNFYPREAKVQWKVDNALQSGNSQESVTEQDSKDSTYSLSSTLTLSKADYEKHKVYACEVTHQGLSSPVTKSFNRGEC
As to B1, the binding result is “binds” in [1]; “no binding (tested: 100 nM)” with human FcγRIIIb (NA2); “no binding (tested: 100 nM)” with mouse FcγRIII; “no binding (tested: 100 nM)” with human FcγRIIb; “no binding (tested: 100 nM)” with human FcγRIIIb (NA1); “no binding (tested: 100 nM)” with mouse FcγRI. The binding result is recorded as “binds” with Soluble human FcRn, “no binding (tested: 100 nM)” in the test with mouse FcγRIV and “binds” with human FcγRIa.

B2: Anti-CD154 antibody (SLAPH0336a/SLAPL0336a) with Fc variant LALA+ACT3+KAES (SG1105) (antibody)
heavy: EVQLVESGGGSVKPGGSLKLSCAASGFTFSDHYMYWVRQTPEKRLEWVAIISGGGSYTSYPDSMKGRFTISRDNAKNILHLQMSSLKSEDTAMYYCTRESNGKPGFAYWGQGTLVTVSAASTKGPSVFPLAPSSKSTSGGTAALGCLVKDYFPEPVTVSWNSGALTSGVHTFPAVLQSSGLYSLSSVVTVPSSSLGTQTYICNVNHKPSNTKVDKRVEPKSCDKTHTCPPCPAPEAAGGPSVFLFPPKPKDTLMISRTPEVTCVVVDVSHEDPEVKFNWYVDGVEVHNAKTKPREEQYNSTYRVVSVLTVLHQDWLNGKEYKCKVSNAALPAPISKTISKAKGQPREPQVYTLPPSREEMTKNQVSLTCLVKGFYPSDIAVEWESNGQPENNYKTTPPVLDSDGSFFLYSKLTVDKSRWQQGNVFSCSVLHEALHAHTTRKELSLSP
light: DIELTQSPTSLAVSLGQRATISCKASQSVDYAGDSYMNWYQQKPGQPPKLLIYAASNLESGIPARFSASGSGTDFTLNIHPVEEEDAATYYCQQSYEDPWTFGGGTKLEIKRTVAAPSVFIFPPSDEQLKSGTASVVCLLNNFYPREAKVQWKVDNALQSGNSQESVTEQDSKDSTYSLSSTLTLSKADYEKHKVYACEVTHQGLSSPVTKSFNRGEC
notes: also called LALA+KAES+ACT3
On to B2, for which the binding result is listed as “binds” in [1]; “no binding (tested: 100 nM)” with human FcγRIIIb (NA2); “no binding (tested: 100 nM)” with mouse FcγRIII; “no binding (tested: 100 nM)” with human FcγRIIb; “no binding (tested: 100 nM)” with human FcγRIIIb (NA1); “no binding (tested: 100 nM)” with mouse FcγRI. Besides, the binding result with Soluble human FcRn is recorded as “binds”; in the test with mouse FcγRIV it was “no binding (tested: 100 nM)”; with human FcγRIa, “binds”; with human FcγRIIIa (158V), “binds”.

B3: Anti-CD154 antibody (SLAPH0336a/SLAPL0336a) with Fc variant LALA+ACT5+KAES (SG1106) (antibody)
heavy: EVQLVESGGGSVKPGGSLKLSCAASGFTFSDHYMYWVRQTPEKRLEWVAIISGGGSYTSYPDSMKGRFTISRDNAKNILHLQMSSLKSEDTAMYYCTRESNGKPGFAYWGQGTLVTVSAASTKGPSVFPLAPSSKSTSGGTAALGCLVKDYFPEPVTVSWNSGALTSGVHTFPAVLQSSGLYSLSSVVTVPSSSLGTQTYICNVNHKPSNTKVDKRVEPKSCDKTHTCPPCPAPEAAGGPSVFLFPPKPKDTLMISRTPEVTCVVVDVSHEDPEVKFNWYVDGVEVHNAKTKPREEQYNSTYRVVSVLTVLHQDWLNGKEYKCKVSNAALPAPISKTISKAKGQPREPQVYTLPPSREEMTKNQVSLTCLVKGFYPSDIAVEWESNGQPENNYKTTPPVLDSDGSFFLYSKLTVDKSRWQQGNVFSCSVLHEALHAHYTRKELSLSP
light: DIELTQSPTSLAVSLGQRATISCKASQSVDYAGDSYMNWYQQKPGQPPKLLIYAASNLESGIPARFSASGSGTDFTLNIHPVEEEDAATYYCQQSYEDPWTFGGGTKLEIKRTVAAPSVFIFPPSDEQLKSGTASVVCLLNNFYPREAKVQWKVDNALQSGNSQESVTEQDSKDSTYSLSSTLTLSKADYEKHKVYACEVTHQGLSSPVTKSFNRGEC
notes: also called LALA+KAES+ACT5
On to B3, for which the binding result in test [1] is “binds”; in the test with human FcγRIIIb (NA2), “no binding (tested: 100 nM)”; with mouse FcγRIII, “no binding (tested: 100 nM)”; with human FcγRIIb it was “no binding (tested: 100 nM)”; in the test with human FcγRIIIb (NA1), “no binding (tested: 100 nM)”; with mouse FcγRI, “no binding (tested: 100 nM)”. Besides, the binding result is “binds” with Soluble human FcRn, “no binding (tested: 100 nM)” with mouse FcγRIV, “binds” in the test with human FcγRIa and “binds” with human FcγRIIIa (158V).

B4: Anti-CD154 antibody (SLAPH0336a/SLAPL0336a) with Fc variant LALA+ACT5 (SG1045) (antibody)
heavy: EVQLVESGGGSVKPGGSLKLSCAASGFTFSDHYMYWVRQTPEKRLEWVAIISGGGSYTSYPDSMKGRFTISRDNAKNILHLQMSSLKSEDTAMYYCTRESNGKPGFAYWGQGTLVTVSAASTKGPSVFPLAPSSKSTSGGTAALGCLVKDYFPEPVTVSWNSGALTSGVHTFPAVLQSSGLYSLSSVVTVPSSSLGTQTYICNVNHKPSNTKVDKRVEPKSCDKTHTCPPCPAPEAAGGPSVFLFPPKPKDTLMISRTPEVTCVVVDVSHEDPEVKFNWYVDGVEVHNAKTKPREEQYNSTYRVVSVLTVLHQDWLNGKEYKCKVSNKALPAPIEKTISKAKGQPREPQVYTLPPSREEMTKNQVSLTCLVKGFYPSDIAVEWESNGQPENNYKTTPPVLDSDGSFFLYSKLTVDKSRWQQGNVFSCSVLHEALHAHYTRKELSLSP
light: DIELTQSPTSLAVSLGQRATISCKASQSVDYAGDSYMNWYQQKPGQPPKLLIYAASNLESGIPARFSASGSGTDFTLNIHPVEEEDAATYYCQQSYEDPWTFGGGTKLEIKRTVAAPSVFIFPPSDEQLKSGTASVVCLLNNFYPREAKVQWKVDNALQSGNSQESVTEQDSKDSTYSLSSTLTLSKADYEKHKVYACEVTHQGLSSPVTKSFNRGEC
For B4, the binding result is “binds” in test [1]; “no binding (tested: 100 nM)” in the test with human FcγRIIIb (NA2); “no binding (tested: 100 nM)” in the test with mouse FcγRIII; “no binding (tested: 100 nM)” in the test with human FcγRIIb; “no binding (tested: 100 nM)” with human FcγRIIIb (NA1); “no binding (tested: 100 nM)” in the test with mouse FcγRI. Further, the binding result was “binds” in the test with Soluble human FcRn, “no binding (tested: 100 nM)” with mouse FcγRIV, “binds” with human FcγRIa and “binds” with human FcγRIIIa (158V).
